Literature values, collected in PMC7191063.

Tests used:
[1] = molecular target: trypsin (Bos taurus) (UniProt P00760)
[2] = molecular target: trypsin (Bos taurus) (UniProt P00760); remark: listed apart in the source

Sequence of UniProt P00760 (P00760 149-246): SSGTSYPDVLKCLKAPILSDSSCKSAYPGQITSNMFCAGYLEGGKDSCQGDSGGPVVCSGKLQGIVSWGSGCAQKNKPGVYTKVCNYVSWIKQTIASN

Ki [1] [nM]	Kd [2] [nM]	Substance
0.174	–	BWI-2c (from UniProt P86794)
–	< 1	VhTI (from UniProt P85981)
